Experimental findings from US20240042032A1 (TENEOBIO, published 2024) are described below.

The assay concerns the target T1, human CD19 on CD19+ cells (Raji, Daudi, Ramos, SU-DHL-10, Nalm6) (human, UniProt P15391 20-556).
T1 construct: whole, on cells; also called B-Lymphocyte Surface Antigen B4
T1 sequence (looked up): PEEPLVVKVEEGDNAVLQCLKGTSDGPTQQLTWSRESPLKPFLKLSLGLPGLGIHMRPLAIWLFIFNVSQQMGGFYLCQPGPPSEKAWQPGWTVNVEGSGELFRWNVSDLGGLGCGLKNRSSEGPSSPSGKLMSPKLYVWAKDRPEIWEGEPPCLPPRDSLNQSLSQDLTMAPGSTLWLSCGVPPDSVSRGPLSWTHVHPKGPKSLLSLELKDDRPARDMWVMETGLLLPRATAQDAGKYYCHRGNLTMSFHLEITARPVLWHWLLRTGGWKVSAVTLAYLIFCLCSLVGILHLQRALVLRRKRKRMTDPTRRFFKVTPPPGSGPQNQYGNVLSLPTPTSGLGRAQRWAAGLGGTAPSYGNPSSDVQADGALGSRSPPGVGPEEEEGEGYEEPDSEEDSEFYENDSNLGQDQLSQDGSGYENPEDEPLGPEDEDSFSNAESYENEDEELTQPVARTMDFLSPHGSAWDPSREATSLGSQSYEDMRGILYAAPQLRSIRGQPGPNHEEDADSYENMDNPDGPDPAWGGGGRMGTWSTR
As to the kind of experiment: cell-binding assay on CD19+ cells.

Numbering of substitutions follows the chain as printed.

B1: anti-CD19 heavy chain-only antibody (UniAb) clone ID 370083 (antibody, V domains shown)
VH: QVQLVESGGGLVKPGGSLRLSCAASGFTFSDYYMSWIRQAPGKGLEWVSYMSSSGSTIYYADSVKGRFTISRDNAKNSLYLQMTSLRAEDTAVYYCARGGIAATGTWGQGTLVTVSS
notes: Heavy chain-only antibody with no light chain, tested as purified UniAb and detected with anti-human IgG; Only the VH is tied to the clone
For B1, the binding result is recorded as “binds”.

B2: anti-CD19 heavy chain-only antibody (UniAb) clone ID 370034 (antibody, V domains shown)
VH: B1 VH with N77K, T84N, T104A
notes: Heavy chain-only antibody with no light chain, tested as purified UniAb and detected with anti-human IgG; Only the VH is tied to the clone; also called HCAb 370034
For B2, the binding result was “binds”.
